Measured values: article PMC4751086, “Structural Study of the HD-PTP Bro1 Domain in a Complex with the Core Region of STAM2, a Subunit of ESCRT-0” (PLoS ONE, 2016)

T1: HD-PTP(1–361) (human, UniProt Q9H3S7 1-361)
T1 construct: also called HD-PTP Bro1 domain; PTPN23; source: E. coli BL21(DE3) RIL, purified (Ni-NTA, TEV protease, gel filtration); not shown: (His)6, N-terminal, cleaved
T1 sequence (looked up): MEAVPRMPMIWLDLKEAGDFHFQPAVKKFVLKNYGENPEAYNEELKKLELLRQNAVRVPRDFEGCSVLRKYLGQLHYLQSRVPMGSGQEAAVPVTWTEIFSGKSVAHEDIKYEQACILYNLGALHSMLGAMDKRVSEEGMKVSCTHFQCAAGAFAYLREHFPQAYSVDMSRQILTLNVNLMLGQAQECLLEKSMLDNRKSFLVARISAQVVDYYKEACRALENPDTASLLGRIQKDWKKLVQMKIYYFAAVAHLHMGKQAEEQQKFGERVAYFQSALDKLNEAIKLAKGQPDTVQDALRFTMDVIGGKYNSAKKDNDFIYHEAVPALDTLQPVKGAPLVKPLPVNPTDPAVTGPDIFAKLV

T2: HD-PTP(1–361;T145R) (human, UniProt Q9H3S7 1-361, T145R)
T2 construct: source: E. coli BL21(DE3) RIL, purified (Ni-NTA, gel filtration)
T2 sequence (looked up): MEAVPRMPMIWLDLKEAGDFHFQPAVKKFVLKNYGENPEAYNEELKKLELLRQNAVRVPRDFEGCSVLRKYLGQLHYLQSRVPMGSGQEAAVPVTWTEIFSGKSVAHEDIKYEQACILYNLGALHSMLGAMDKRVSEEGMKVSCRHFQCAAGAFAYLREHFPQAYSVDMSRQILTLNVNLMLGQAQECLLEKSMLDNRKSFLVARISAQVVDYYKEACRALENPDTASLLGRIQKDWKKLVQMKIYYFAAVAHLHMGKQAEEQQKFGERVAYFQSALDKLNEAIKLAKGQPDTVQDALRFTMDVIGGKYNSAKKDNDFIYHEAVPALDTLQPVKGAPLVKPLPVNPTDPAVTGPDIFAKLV

T3: HD-PTP(1–361;T145K) (human, UniProt Q9H3S7 1-361, T145K)
T3 construct: source: E. coli BL21(DE3) RIL, purified (Ni-NTA, gel filtration)
T3 sequence (looked up): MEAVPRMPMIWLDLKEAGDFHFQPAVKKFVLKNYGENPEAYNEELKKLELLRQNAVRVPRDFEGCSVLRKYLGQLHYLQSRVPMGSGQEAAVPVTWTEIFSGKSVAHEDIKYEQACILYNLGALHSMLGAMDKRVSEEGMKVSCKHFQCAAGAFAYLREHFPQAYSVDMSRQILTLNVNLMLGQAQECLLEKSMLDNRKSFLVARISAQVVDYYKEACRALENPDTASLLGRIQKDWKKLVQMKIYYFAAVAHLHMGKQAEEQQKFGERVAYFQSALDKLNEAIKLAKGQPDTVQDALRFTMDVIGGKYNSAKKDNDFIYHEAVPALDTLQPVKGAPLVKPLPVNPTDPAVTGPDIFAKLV

T4: HD-PTP(1–361) with T145A substitution (human, UniProt Q9H3S7 1-361, T145A)
T4 construct: source: E. coli BL21(DE3) RIL, purified (Ni-NTA, gel filtration)
T4 sequence (looked up): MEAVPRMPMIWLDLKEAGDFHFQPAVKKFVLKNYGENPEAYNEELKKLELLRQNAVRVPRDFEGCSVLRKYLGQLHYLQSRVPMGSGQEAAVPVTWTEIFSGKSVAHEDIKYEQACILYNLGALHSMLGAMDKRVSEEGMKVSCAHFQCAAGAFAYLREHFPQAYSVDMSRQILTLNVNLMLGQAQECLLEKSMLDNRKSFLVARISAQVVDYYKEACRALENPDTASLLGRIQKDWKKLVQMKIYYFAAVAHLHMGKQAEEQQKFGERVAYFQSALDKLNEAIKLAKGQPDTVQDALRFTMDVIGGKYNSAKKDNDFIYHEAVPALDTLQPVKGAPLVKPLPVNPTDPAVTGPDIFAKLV


What was measured:
Conditions in all cases: both partners purified
[1] = biological target: T1, HD-PTP(1–361); test: SEC; Superose 6 10/300 GL gel filtration column; mixture of HD-PTP(1–361) and STAM2 fragment; peak fractions analysed by SDS-PAGE and Coomassie staining
[2] = biological target: T2, HD-PTP(1–361;T145R); test: ITC; 0.5 mM peptide titrated into 50 μM protein; iTC200; 2°C as printed; 20 mM Tris-HCl (pH 7.5), 100 mM NaCl
[3] = biological target: T3, HD-PTP(1–361;T145K); test: as above
[4] = biological target: T4, HD-PTP(1–361) with T145A substitution; test: as above
[5] = biological target: T1, HD-PTP(1–361); test: as above

| Binder | binding result [1] | Kd [2] [µM] | Kd [3] [µM] | Kd [4] [µM] | Kd [5] [µM] |
| --- | --- | --- | --- | --- | --- |
| STAM2(311–370) (domain or fragment, source: E. coli BL21(DE3) RIL, purified (Ni-NTA, gel filtration)) not shown | binds |  |  |  |  |
| STAM2(260–370) (domain or fragment, STAM2, human, core region, residues 260–370; also called STAM2 core region containing residues 260–370; signal-transducing adaptor molecule 2; source: E. coli BL21(DE3) RIL, purified (Ni-NTA, gel filtration)) not shown | binds |  |  |  |  |
| KEEEDDDMKELENWAGSM (peptide, UniProt Q9H444 207-224, looked up, CHMP4B, residues 207–224 (18-mer; the polypeptide terminates with Met224); also called CHMP4B peptide of 18-mer (residues 207–224); charged multivesicular body protein 4B; source: synthetic peptide, bought: Peptron (Korea)) [CHMP4B(207–224)] |  | < 8 | < 8 | < 8 | < 8 |
